Results taken from patent US20150125470A1.

Molecular target: human Siglec-15 V-set domain (human) (UniProt Q6ZMC9)
Test: SPR (Biacore T200), antibody captured via anti-human IgG, antigen as analyte, same manner as 10-1

UniProt Q6ZMC9, sequence (Q6ZMC9 39-165 limits assumed, form in doubt): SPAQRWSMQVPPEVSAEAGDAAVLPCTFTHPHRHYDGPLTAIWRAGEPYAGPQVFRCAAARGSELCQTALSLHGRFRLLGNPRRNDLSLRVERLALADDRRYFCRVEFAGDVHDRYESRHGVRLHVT

Row | Binder | Kd
1 | h#24A3-H2/L3 (antibody, human IgG2, kappa, V domains shown) VH: QVQLVQSGAEVKKPGASVKVSCKASGYTFPRYDVSWVRQAPGQGLEWMGVIHPGSGGTGYNEKFKARVTITADTSTSTAYMELSSLRSEDTAVYYCARRGLNSGYWFFDFWGQGTLVTVSS VL: DIVMTQSPDSLAVSLGERATINCKASQNVGSNVDWYQQKPGQSPKLLIYESTNRYTGVPDRFTGSGSGTDFTFTISSLQAEDVAVYYCMQSNFFPFTFGQGTKVEIKR | 0.027 nM
2 | h#24A3-H2/L2 (antibody, human IgG2, kappa, V domains shown) VH: QVQLVQSGAEVKKPGASVKVSCKASGYTFPRYDVSWVRQAPGQGLEWMGVIHPGSGGTGYNEKFKARVTITADTSTSTAYMELSSLRSEDTAVYYCARRGLNSGYWFFDFWGQGTLVTVSS VL: DIVMTQSPDSLAVSLGERATINCKASQNVGSNVDWYQQKPGQSPKLLIYESTNRYTGVPDRFSGSGSGTDFTFTISSLQAEDVAVYYCMQSNFFPFTFGQGTKVEIKR | 0.028 nM
3 | h#24A3-H2e/L2b (antibody, human IgG2, kappa, V domains shown) VH: QVQLVQSGAEVKKPGASVKVSCKASGYTFPRYDVSWVRQAPGQGLEWMGVIHPGSGGTGYNEKFKARVTITVDTSTSTAYMELSSLRSEDTAVYYCARRGLNKGYWFFDFWGQGTLVTVSS VL: DIVMTQSPDSLAVSLGERATINCKASQNVGSNVDWYQQKPGQSPKLLIYESTNRYTGVPDRFSGSGSGTDFTLTISSLQAEDVAVYYCMQSNFFPFTFGQGTKVEIKR | 0.018 nM
4 | h#24A3-H2e/L3b (antibody, human IgG2, kappa, V domains shown) VH: QVQLVQSGAEVKKPGASVKVSCKASGYTFPRYDVSWVRQAPGQGLEWMGVIHPGSGGTGYNEKFKARVTITVDTSTSTAYMELSSLRSEDTAVYYCARRGLNKGYWFFDFWGQGTLVTVSS VL: DIVMTQSPDSLAVSLGERATINCKASQNVGSNVDWYQQKPGQSPKLLIYESTNRYTGVPDRFTGSGSGTDFTLTISSLQAEDVAVYYCMQSNFFPFTFGQGTKVEIKR | 0.016 nM
5 | h#24A3-H2c/L3b (antibody, human IgG2, kappa, V domains shown) VH: QVQLVQSGAEVKKPGASVKVSCKASGYTFPRYDVSWVRQAPGQGLEWIGVIHPGSGGTGYNEKFKARVTITADTSTSTAYMELSSLRSEDTAVYYCARRGLNKGYWFFDFWGQGTLVTVSS VL: DIVMTQSPDSLAVSLGERATINCKASQNVGSNVDWYQQKPGQSPKLLIYESTNRYTGVPDRFTGSGSGTDFTLTISSLQAEDVAVYYCMQSNFFPFTFGQGTKVEIKR | 0.015 nM
6 | h#24A3-H2c/L2b (antibody, human IgG2, kappa, V domains shown) VH: QVQLVQSGAEVKKPGASVKVSCKASGYTFPRYDVSWVRQAPGQGLEWIGVIHPGSGGTGYNEKFKARVTITADTSTSTAYMELSSLRSEDTAVYYCARRGLNKGYWFFDFWGQGTLVTVSS VL: DIVMTQSPDSLAVSLGERATINCKASQNVGSNVDWYQQKPGQSPKLLIYESTNRYTGVPDRFSGSGSGTDFTLTISSLQAEDVAVYYCMQSNFFPFTFGQGTKVEIKR | 0.013 nM
7 | h#24A3-H2d/L2b (antibody, human IgG2, kappa, V domains shown) VH: QVQLVQSGAEVKKPGASVKVSCKASGYTFPRYDVSWVRQAPGQGLEWMGVIHPGSGGTGYNEKFKARATITADTSTSTAYMELSSLRSEDTAVYYCARRGLNKGYWFFDFWGQGTLVTVSS VL: DIVMTQSPDSLAVSLGERATINCKASQNVGSNVDWYQQKPGQSPKLLIYESTNRYTGVPDRFSGSGSGTDFTLTISSLQAEDVAVYYCMQSNFFPFTFGQGTKVEIKR | 0.01 nM
8 | h#24A3-H2/L1 (antibody, human IgG2, kappa, V domains shown) VH: QVQLVQSGAEVKKPGASVKVSCKASGYTFPRYDVSWVRQAPGQGLEWMGVIHPGSGGTGYNEKFKARVTITADTSTSTAYMELSSLRSEDTAVYYCARRGLNSGYWFFDFWGQGTLVTVSS VL: DIVMTQSPDSLAVSLGERATINCKASQNVGSNVDWYQQKPGQPPKLLIYESTNRYTGVPDRFSGSGSGTDFTLTISSLQAEDVAVYYCMQSNFFPFTFGQGTKVEIKR | 0.031 nM
9 | h#24A3-H2c/L1 (antibody, human IgG2, kappa, V domains shown) VH: QVQLVQSGAEVKKPGASVKVSCKASGYTFPRYDVSWVRQAPGQGLEWIGVIHPGSGGTGYNEKFKARVTITADTSTSTAYMELSSLRSEDTAVYYCARRGLNKGYWFFDFWGQGTLVTVSS VL: DIVMTQSPDSLAVSLGERATINCKASQNVGSNVDWYQQKPGQPPKLLIYESTNRYTGVPDRFSGSGSGTDFTLTISSLQAEDVAVYYCMQSNFFPFTFGQGTKVEIKR | 0.01 nM

The next lines start with the values.

Row | Kd | Binder
10 | 0.0098 nM | h#24A3-H2b/L1 (antibody, human IgG2, kappa, V domains shown) VH: QVQLVQSGAEVKKPGASVKVSCKASGYTFPRYDVSWVRQAPGQGLEWMGVIHPGSGGTGYNEKFKARVTITADTSTSTAYMELSSLRSEDTAVYYCARRGLNKGYWFFDFWGQGTLVTVSS VL: DIVMTQSPDSLAVSLGERATINCKASQNVGSNVDWYQQKPGQPPKLLIYESTNRYTGVPDRFSGSGSGTDFTLTISSLQAEDVAVYYCMQSNFFPFTFGQGTKVEIKR
11 | 0.0085 nM | h#24A3-H2b/L2b (antibody, human IgG2, kappa, V domains shown) VH: QVQLVQSGAEVKKPGASVKVSCKASGYTFPRYDVSWVRQAPGQGLEWMGVIHPGSGGTGYNEKFKARVTITADTSTSTAYMELSSLRSEDTAVYYCARRGLNKGYWFFDFWGQGTLVTVSS VL: DIVMTQSPDSLAVSLGERATINCKASQNVGSNVDWYQQKPGQSPKLLIYESTNRYTGVPDRFSGSGSGTDFTLTISSLQAEDVAVYYCMQSNFFPFTFGQGTKVEIKR
12 | 0.0077 nM | h#24A3-H2b/L3b (antibody, human IgG2, kappa, V domains shown) VH: QVQLVQSGAEVKKPGASVKVSCKASGYTFPRYDVSWVRQAPGQGLEWMGVIHPGSGGTGYNEKFKARVTITADTSTSTAYMELSSLRSEDTAVYYCARRGLNKGYWFFDFWGQGTLVTVSS VL: DIVMTQSPDSLAVSLGERATINCKASQNVGSNVDWYQQKPGQSPKLLIYESTNRYTGVPDRFTGSGSGTDFTLTISSLQAEDVAVYYCMQSNFFPFTFGQGTKVEIKR
13 | 0.0075 nM | h#24A3-H2d/L3b (antibody, human IgG2, kappa, V domains shown) VH: QVQLVQSGAEVKKPGASVKVSCKASGYTFPRYDVSWVRQAPGQGLEWMGVIHPGSGGTGYNEKFKARATITADTSTSTAYMELSSLRSEDTAVYYCARRGLNKGYWFFDFWGQGTLVTVSS VL: DIVMTQSPDSLAVSLGERATINCKASQNVGSNVDWYQQKPGQSPKLLIYESTNRYTGVPDRFTGSGSGTDFTLTISSLQAEDVAVYYCMQSNFFPFTFGQGTKVEIKR
14 | 0.0069 nM | h#24A3-H2e/L1 (antibody, human IgG2, kappa, V domains shown) VH: QVQLVQSGAEVKKPGASVKVSCKASGYTFPRYDVSWVRQAPGQGLEWMGVIHPGSGGTGYNEKFKARVTITVDTSTSTAYMELSSLRSEDTAVYYCARRGLNKGYWFFDFWGQGTLVTVSS VL: DIVMTQSPDSLAVSLGERATINCKASQNVGSNVDWYQQKPGQPPKLLIYESTNRYTGVPDRFSGSGSGTDFTLTISSLQAEDVAVYYCMQSNFFPFTFGQGTKVEIKR
15 | 0.0045 nM | h#24A3-H2d/L1 (antibody, human IgG2, kappa, V domains shown) VH: QVQLVQSGAEVKKPGASVKVSCKASGYTFPRYDVSWVRQAPGQGLEWMGVIHPGSGGTGYNEKFKARATITADTSTSTAYMELSSLRSEDTAVYYCARRGLNKGYWFFDFWGQGTLVTVSS VL: DIVMTQSPDSLAVSLGERATINCKASQNVGSNVDWYQQKPGQPPKLLIYESTNRYTGVPDRFSGSGSGTDFTLTISSLQAEDVAVYYCMQSNFFPFTFGQGTKVEIKR

Molecular target: human Siglec-15 V-set domain (human) (UniProt Q6ZMC9)
Test: SPR (Biacore T200), ratio of KD values, reference rat #32A1

Row | fold affinity against #32A1 | Binder
16 | 2 fold | rat anti-human Siglec-15 monoclonal antibody #24A3 (antibody, rat IgG2a, V domains shown) VH: QVQLQQSGAELTKPGSSVKISCKTSGYTFPRYDVSWIKQRPGQALEWIGVIHPGSGGTGYNEKFKAKATLAVDTSSSTAFMQLSSLTPEDTAVYYCARRGLNSGYWFFDFWGPGTLVTVSS VL: DIVMTQSPTSMSISVGDRVTMNCKASQNVGSNVDWYQQKTGQSPKLLIYESTNRYTGVPDRFTGSGSGTDFTFTISNVQAEDLAVYYCMQSNFFPFTFGSGIKLEIKR

Molecular target: human Siglec-15 V-set domain (human) (UniProt Q6ZMC9)
Test: SPR (Biacore T200), antibody captured via immobilized anti-human IgG antibody, antigen as analyte, 1:1 model

Row | Kd | Binder
17 | 0.017 nM | human chimeric antibody of the rat anti-human Siglec-15 monoclonal antibody #24A3 (antibody, human IgG2, V domains shown) VH: QVQLQQSGAELTKPGSSVKISCKTSGYTFPRYDVSWIKQRPGQALEWIGVIHPGSGGTGYNEKFKAKATLAVDTSSSTAFMQLSSLTPEDTAVYYCARRGLNSGYWFFDFWGPGTLVTVSS VL: DIVMTQSPTSMSISVGDRVTMNCKASQNVGSNVDWYQQKTGQSPKLLIYESTNRYTGVPDRFTGSGSGTDFTFTISNVQAEDLAVYYCMQSNFFPFTFGSGIKLEIKR

Molecular target: human Siglec-15 V-set domain (human) (UniProt Q6ZMC9)
Test: SPR (Biacore T200), antibody captured via immobilized anti-mouse IgG antibody, antigen as analyte, 1:1 model

Row | Kd | Binder
18 | 0.07 nM | rat anti-human Siglec-15 monoclonal antibody #24A3 (antibody, rat IgG2a, V domains shown) VH: QVQLQQSGAELTKPGSSVKISCKTSGYTFPRYDVSWIKQRPGQALEWIGVIHPGSGGTGYNEKFKAKATLAVDTSSSTAFMQLSSLTPEDTAVYYCARRGLNSGYWFFDFWGPGTLVTVSS VL: DIVMTQSPTSMSISVGDRVTMNCKASQNVGSNVDWYQQKTGQSPKLLIYESTNRYTGVPDRFTGSGSGTDFTFTISNVQAEDLAVYYCMQSNFFPFTFGSGIKLEIKR
